Test results: article PMC12098889, “Structural insight into PIF6-mediated red light signal transduction of plant phytochrome B” (Cell Discovery, 2025)
Substitutions are numbered along the chain they refer to.

B1: PIF6N (1‒64) (domain or fragment, Arabidopsis, UniProt Q8L5W7 1-64, looked up)
chain: MMFLPTDYCCRLSDQEYMELVFENGQILAKGQRSNVSLHNQRTKSIMDLYEAEYNEDFMKSIIH
notes: Arabidopsis PIF6, residues 1-64 (methods of the pull-down); the legends call PIF6N residues 1-60 and the results R11-S60; Probably in the modified pET15b vector (N-terminal His6, C-terminal StrepII) like the other PIFNs; also called N-terminus of PIF6β; source: E. coli BL21(DE3), purified
B2: PIF6αΔC (1‒247) (domain or fragment, Arabidopsis, UniProt Q8L5W7 1-247, looked up)
chain: MMFLPTDYCCRLSDQEYMELVFENGQILAKGQRSNVSLHNQRTKSIMDLYEAEYNEDFMKSIIHGGGGAITNLGDTQVVPQSHVAAAHETNMLESNKHVDDSETLKASSSKRMMVDYHNRKKIKFIPPDEQSVVADRSFKLGFDTSSVGFTEDSEGSMYLSSSLDDESDDARPQVPARTRKALVKRKRNAEAYNSPERNQRNDINKKMRTLQNLLPNSHKDDNESMLDEAINYMTNLQLQVQMMTMG
notes: Arabidopsis PIF6α, residues 1-247; also called PIF6ΔC; C-terminus-truncated PIF6α; source: E. coli BL21(DE3), purified (Ni-NTA, Strep-Tactin, Source Q); not shown: StrepII, C-terminal, kept

Key:
Settings in all cases: both partners purified
[1] = molecular target: T1, phytochrome B (phyB), full length (1‒1172) (Arabidopsis, UniProt P14713 1-1172, PΦB chromophore covalently linked to C357); assay: SEC; Superose 6 Increase 10/300 GL; 25 mM Tris-HCl pH 8.0, 150 mM NaCl, 5 mM DTT; red light-irradiated phyB; peak fractions on SDS-PAGE
T1 construct: Arabidopsis phytochrome B, residues 1-1172, At2g18790; The same protein is Pr in the dark and Pfr after red light; The purification uses Ni-NTA, but no His tag on phyB is described; also called wild-type phyB; phyB-Pr (dark); source: E. coli BL21(DE3), co-expressed with HO1 and HY2, purified (Ni-NTA, anti-FLAG resin, Source Q); not shown: 3× Flag ([residues removed]), N-terminal, kept
T1 sequence (looked up): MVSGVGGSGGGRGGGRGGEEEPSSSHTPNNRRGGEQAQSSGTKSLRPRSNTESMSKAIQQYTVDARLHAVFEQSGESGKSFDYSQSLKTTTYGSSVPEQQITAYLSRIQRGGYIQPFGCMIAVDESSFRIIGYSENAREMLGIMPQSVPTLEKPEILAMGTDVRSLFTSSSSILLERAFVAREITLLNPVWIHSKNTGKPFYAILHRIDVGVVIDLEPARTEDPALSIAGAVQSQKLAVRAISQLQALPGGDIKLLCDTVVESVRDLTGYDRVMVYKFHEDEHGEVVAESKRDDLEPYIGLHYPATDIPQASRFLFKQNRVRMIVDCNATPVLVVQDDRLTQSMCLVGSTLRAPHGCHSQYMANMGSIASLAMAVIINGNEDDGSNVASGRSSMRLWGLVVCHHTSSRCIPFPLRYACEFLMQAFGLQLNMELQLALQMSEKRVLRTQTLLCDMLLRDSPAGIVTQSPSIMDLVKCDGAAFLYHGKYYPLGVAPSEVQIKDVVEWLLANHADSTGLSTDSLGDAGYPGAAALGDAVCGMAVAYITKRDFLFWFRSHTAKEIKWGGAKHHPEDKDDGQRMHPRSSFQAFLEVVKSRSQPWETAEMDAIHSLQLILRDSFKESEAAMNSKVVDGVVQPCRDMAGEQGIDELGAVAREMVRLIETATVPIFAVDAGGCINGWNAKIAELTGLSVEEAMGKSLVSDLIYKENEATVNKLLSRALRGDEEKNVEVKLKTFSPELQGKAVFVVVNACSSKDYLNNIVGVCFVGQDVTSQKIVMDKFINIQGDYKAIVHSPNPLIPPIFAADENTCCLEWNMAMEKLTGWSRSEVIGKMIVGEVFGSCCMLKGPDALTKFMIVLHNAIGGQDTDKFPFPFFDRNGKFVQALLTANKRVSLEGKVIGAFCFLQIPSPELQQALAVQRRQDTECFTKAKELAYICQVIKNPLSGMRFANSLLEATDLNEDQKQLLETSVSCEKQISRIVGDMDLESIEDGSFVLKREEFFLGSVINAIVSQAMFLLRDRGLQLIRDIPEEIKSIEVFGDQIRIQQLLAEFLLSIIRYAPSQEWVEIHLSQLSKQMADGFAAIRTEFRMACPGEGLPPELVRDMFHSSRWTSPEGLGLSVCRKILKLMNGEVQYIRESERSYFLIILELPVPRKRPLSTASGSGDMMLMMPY

[2] = molecular target: T2, phyBN (residues 1‒908 of phyB) (Arabidopsis, UniProt P14713 1-908, PΦB chromophore covalently bound); assay: pull-down; StrepII-tagged PIF6N (1-64) and its mutants used to pull down Flag-tagged phyBN (Pfr) and its site-directed mutants; SDS-PAGE with Coomassie and zinc-induced fluorescence
T2 construct: Arabidopsis phytochrome B, residues 1-908 (HKRD truncated); also called phyBN-Pfr (red light-irradiated); source: E. coli BL21(DE3), co-expressed with HO1 and HY2, purified; not shown: 3× Flag, N-terminal, kept
T2 sequence (looked up): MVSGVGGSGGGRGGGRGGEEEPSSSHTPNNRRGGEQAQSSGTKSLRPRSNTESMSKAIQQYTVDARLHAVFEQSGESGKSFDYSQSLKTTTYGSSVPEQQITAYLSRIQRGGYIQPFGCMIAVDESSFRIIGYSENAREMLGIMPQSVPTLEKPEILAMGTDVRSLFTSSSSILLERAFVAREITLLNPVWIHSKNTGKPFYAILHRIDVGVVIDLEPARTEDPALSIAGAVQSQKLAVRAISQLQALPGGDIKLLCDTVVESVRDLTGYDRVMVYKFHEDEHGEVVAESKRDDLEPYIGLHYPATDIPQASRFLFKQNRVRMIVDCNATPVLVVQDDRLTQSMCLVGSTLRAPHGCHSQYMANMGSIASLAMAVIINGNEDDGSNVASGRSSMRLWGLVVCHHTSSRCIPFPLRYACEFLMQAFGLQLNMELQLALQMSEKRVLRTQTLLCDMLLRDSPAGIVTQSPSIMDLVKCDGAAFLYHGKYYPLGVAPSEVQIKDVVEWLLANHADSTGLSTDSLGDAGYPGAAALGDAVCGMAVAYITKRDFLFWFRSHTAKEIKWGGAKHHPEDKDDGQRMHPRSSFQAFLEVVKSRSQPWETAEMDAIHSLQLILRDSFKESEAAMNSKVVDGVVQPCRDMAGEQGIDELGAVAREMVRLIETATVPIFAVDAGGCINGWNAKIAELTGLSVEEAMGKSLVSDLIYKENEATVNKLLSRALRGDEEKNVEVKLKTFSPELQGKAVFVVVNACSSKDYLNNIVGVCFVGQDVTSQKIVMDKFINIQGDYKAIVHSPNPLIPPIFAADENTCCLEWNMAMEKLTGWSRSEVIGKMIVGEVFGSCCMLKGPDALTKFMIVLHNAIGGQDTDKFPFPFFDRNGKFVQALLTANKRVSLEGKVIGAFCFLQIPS

phyB^Y276H, full length = molecular target: T3, phyB^Y276H, full length (Arabidopsis, UniProt P14713 1-1172, Y276H, PΦB chromophore covalently bound); assay: pull-down; StrepII-tagged PIF6 forms or PIFNs held on Strep-Tactin Sepharose, 3× Flag-phyB or phyB^Y276H in the mixture; in the dark, 4 °C, 2 h; buffer E (100 mM Tris-HCl pH 8.0, 150 mM NaCl, 1 mM EDTA); SDS-PAGE with Coomassie and zinc-induced fluorescence
T3 construct: Arabidopsis phytochrome B, residues 1-1172, At2g18790, with Y276H; also called constitutively active mutant phyB^Y276H; source: E. coli BL21(DE3), co-expressed with HO1 and HY2, purified (Ni-NTA, anti-FLAG resin, Source Q); not shown: 3× Flag ([residues removed]), N-terminal, kept
T3 sequence (looked up): T1 sequence (looked up) with Y276H

[3] = molecular target: T1, phytochrome B (phyB), full length …; assay: pull-down; StrepII-tagged PIF6 forms or PIFNs held on Strep-Tactin Sepharose, 3× Flag-phyB in the mixture; red light (665 nm, 800 μmol m^-2 s^-1), 4 °C, 2 h; buffer E (100 mM Tris-HCl pH 8.0, 150 mM NaCl, 1 mM EDTA); eluted with D-desthiobiotin; SDS-PAGE with Coomassie and zinc-induced fluorescence

Row | binding result [1] | binding result [2] | binding result (phyB^Y276H, full length) | binding result [3] | Binder
1 | binds | binds |  |  | B1
2 |  |  | binds | binds | B2
